Holding throughout (experiment): EMSA; EMSA: 8 nM DNA, 20 mM HEPES pH 7.5, 150 mM NaCl, 5 mM DTT, 0.5 mg/ml BSA, 5% glycerol, 25 min at room temperature; gel 5% native, 0.5x TBE, 4 C. AFM: 100 nM DNA, 1-4 uM XPA (ND538)
Details in all cases: protein: recombinant, tags: N-terminal His, label: 5'-6FAM on bottom strand, blunt

Data set [1] concerns the target His-truncXPA-StrepII (human, UniProt P23025 98-239).
Data set [2] deals with T1, His-flXPA-StrepII (human, UniProt P23025 1-273).
Data set [3] addresses T1, His-flXPA-StrepII. The source holds these as a separate data set.

His-truncXPA-StrepII, sequence (P23025 98-239): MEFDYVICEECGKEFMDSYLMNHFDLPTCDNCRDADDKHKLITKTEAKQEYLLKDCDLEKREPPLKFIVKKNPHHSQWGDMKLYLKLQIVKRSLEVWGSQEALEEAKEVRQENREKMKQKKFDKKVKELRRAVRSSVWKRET
T1 sequence (P23025 whole entry): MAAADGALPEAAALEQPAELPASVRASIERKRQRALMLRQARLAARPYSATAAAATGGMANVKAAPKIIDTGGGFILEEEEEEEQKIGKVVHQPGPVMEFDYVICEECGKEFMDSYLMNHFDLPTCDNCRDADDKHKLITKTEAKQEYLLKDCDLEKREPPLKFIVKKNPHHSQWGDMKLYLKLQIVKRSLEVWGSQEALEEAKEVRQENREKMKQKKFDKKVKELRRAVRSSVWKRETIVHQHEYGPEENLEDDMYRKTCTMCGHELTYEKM

B1: ND37 (dsDNA)
DNA 1: CCGAGTCATTCCTGCAGCGAGTCCATGGGAGTCAAAT
DNA 2: ATTTGACTCCCATGGACTCGCTGCAGGAATGACTCGG
modifications: 5'-phosphate top strand
In the case of B1, the values for the equilibrium dissociation constant (Kd) in data set [1] and in data set [2] were 269 ± 22 nM and 253 ± 14 nM, respectively.

B2: AAF37 (dsDNA)
DNA 1: CCGAGTCATTCCTGCAGCGAGTCCATGGGAGTCAAAT
DNA 2: ATTTGACTCCCATGGACTCGCTGCAGGAATGACTCGG
modifications: dG-C8-AAF at G14 of top strand; 5'-phosphate top strand
B2: the Kd is 189 ± 9 nM in data set [1] and 109 ± 5 nM in data set [2].

B3: CPD37 (dsDNA)
DNA 1: CCGAGTCATTCCTGCAGCGATTCCATGGGAGTCAAAT
DNA 2: ATTTGACTCCCATGGAATCGCTGCAGGAATGACTCGG
modifications: CPD T<>T at T21-T22 of top strand; 5'-phosphate top strand
In the case of B3, in data set [3], the binding signal is ~44 fold specificity for CPD over non-damaged DNA (Kd ratio x 37 sites). Besides, the dissociation constant (Kd) in data set [1] was 269 ± 24 nM.

The values are drawn from article PMC7069974, “Single molecule analysis reveals monomeric XPA bends DNA and undergoes episodic linear diffusion during damage search”.
